Data: patent publication US20230052646A1 (JJP BIOLOGICS SP Z O O, published 2023)

T1: membrane-bound full-length human HVEM on stable HVEM-transfected HEK293F cells (clone no. 128) (human, UniProt Q92956 39-283)
T1 construct: The same cDNA was also expressed on Sf9 insect cells; also called TNFRSF14; CD270
T1 sequence: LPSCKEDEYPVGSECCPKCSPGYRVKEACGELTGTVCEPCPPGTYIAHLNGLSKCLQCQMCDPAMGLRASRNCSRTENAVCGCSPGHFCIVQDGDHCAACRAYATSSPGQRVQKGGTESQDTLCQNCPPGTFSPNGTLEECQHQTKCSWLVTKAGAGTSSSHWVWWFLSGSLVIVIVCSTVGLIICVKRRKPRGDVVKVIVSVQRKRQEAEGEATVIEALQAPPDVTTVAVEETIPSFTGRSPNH


Assays:
[1] = biological target: membrane-bound full-length human HVEM on stable HVEM-transfected HEK293F cells (clone no. 128) (human) (UniProt Q92956); assay: flow cytometry, 1:20, HEK293F clone no. 128
[2] = biological target: membrane-bound human HVEM on Promega bioassay cells (NFκB-RE-luc human HVEM HEK293 reporter cells; CHO-K1 Activator cells) (human) (UniProt Q92956); assay: flow cytometry, 1:20, NFκB-RE-luc HVEM reporter cells
[3] = biological target: membrane-bound human HVEM on Promega bioassay cells (NFκB-RE-luc human HVEM HEK293 reporter cells; CHO-K1 Activator cells) (human) (UniProt Q92956); assay: cell-based or functional assay
[4] = biological target: T1, membrane-bound full-length human HVEM …; assay: FACS titration on HVEM-HEK293F, half-maximum binding
Description: In order to determine the relative binding affinity of purified BTLA/HVEM blocking chimeric mouse/human anti-human HVEM antibodies no. 36H12, 45H6, 48H6, 11H7, and 49G4 for human HVEM, FACS analysis was used.
To this end, stable human full-length HVEM-transfected HEK293F cells (clone no. 128; see Example 1(a) above) were put at 10×10⁶ cells/mL in ice-chilled PBS containing 0.1% BSA (Sigma)/0.05% NaN₃ (PBS/BSA/NaN₃) supplemented with 50 μg/mL human IgGs (blocking possible Fcγ receptors; Sigma) for 10 minutes at 4° C. Then, 10 μL/tube (i.e., 0.1×10⁶ cells) of these cells were incubated with or without 100 μL titrated (in PBS/BSA/NaN₃) purified BTLA/HVEM blocking chimeric mouse/human anti-human HVEM antibody/tube for 30 minutes at 4° C. After extensive washing in PBS/BSA/NaN₃, cells were subsequently incubated with 1:200 diluted PE-conjugated goat anti-human IgG Fcγ-specific antibodies (Jackson ImmunoResearch) for 30 minutes at 4° C. After extensive washing in PBS/BSA/NaN₃, cells were fixed in 4% formaldehyde in PBS/BSA/NaN₃ for 30 minutes at 4° C. Binding (geo-mean fluorescence intensity) of chimeric mouse/human anti-human HVEM antibodies no. 36H12, 45H6, 48H6, 11H7, and 49G4 on membrane human HVEM was measured using a flow cytometer (FACSCalibur; BD Biosciences). For comparison, purified BTLA/HVEM blocking mouse anti-human HVEM antibody counterparts no. 36H12, 45H6, 48H6, 11H7, and 49G4 were run in parallel, and their binding was monitored as described in Example 2 (a).

[5] = biological target: T1, membrane-bound full-length human HVEM …; assay: FACS, his-LIGHT pre-bound, then Ab 20 µg/mL
Description: Generation of human ‘full-length’ HVEM-transfected HEK293F cells (clone no. 128) is described in Example 1a. Displacement of pre-bound soluble human BTLA, soluble human CD160, soluble human LIGHT, and soluble human TNFβ from surface human HVEM-transfected cells was analysed by FACS analysis. To this end, stable human full-length HVEM-transfected HEK293F cells were put at 10×10⁶ cells/mL in ice-chilled phosphate-buffered saline containing 0.1% BSA (Sigma)/0.05% NaN₃ (PBS/BSA/NaN₃) supplemented with 50 μg/mL human IgGs (blocking possible Fcγ receptors; Sigma) for 10 minutes at 4° C. Then, 10 μL/tube (i.e., 0.1×10⁶ cells) of these cells were incubated without or with 50 μL soluble biotinylated human BTLA-human Fcγ fusion protein (Sino Biological Inc) at 2 μg/mL/tube, with soluble his-tagged human CD160 (Sino Biological Inc) at 20 μg/mL/tube, with soluble his-tagged human LIGHT (Sino Biological Inc) at 2 μg/mL/tube, or with soluble biotinylated human TNFβ (Sino Biological Inc) at 0.2 μg/mL/tube in PBS/BSA/NaN₃ for 30 minutes at 4° C. After this (i.e., without washing), cells were subsequently incubated with 50 μL purified chimeric mouse/human anti-HVEM antibody at 20 μg/mL/tube or a human IgG4/κ (Sigma) negative isotype control at 20 μg/mL/tube for 30 minutes at 4° C. After extensive washing in PBS/BSA/NaN₃, cells were incubated with 1:200 diluted PE-conjugated streptavidin (detection BTLA and TNFβ; Jackson ImmunoResearch) or with biotinylated mouse anti-his antibody (detection CD160 and LIGHT; R&D Systems) at 10 μg/mL for 30 minutes at 4° C. […] Residual binding of ligands BTLA, CD160, LIGHT and TNFβ on membrane human HVEM was measured using a flow cytometer (model FACSCalibur; BD Biosciences).

[6] = biological target: T1, membrane-bound full-length human HVEM …; assay: FACS, biotinylated TNFβ pre-bound, then Ab 20 µg/mL
Description: (§1) Generation of human ‘full-length’ HVEM-transfected HEK293F cells (clone no. 128) is described in Example 1a. Displacement of pre-bound soluble human BTLA, soluble human CD160, soluble human LIGHT, and soluble human TNFβ from surface human HVEM-transfected cells was analysed by FACS analysis. To this end, stable human full-length HVEM-transfected HEK293F cells were put at 10×10⁶ cells/mL in ice-chilled phosphate-buffered saline containing 0.1% BSA (Sigma)/0.05% NaN₃ (PBS/BSA/NaN₃) supplemented with 50 μg/mL human IgGs (blocking possible Fcγ receptors; Sigma) for 10 minutes at 4° C. Then, 10 μL/tube (i.e., 0.1×10⁶ cells) of these cells were incubated without or with 50 μL soluble biotinylated human BTLA-human Fcγ fusion protein (Sino Biological Inc) at 2 μg/mL/tube, with soluble his-tagged human CD160 (Sino Biological Inc) at 20 μg/mL/tube, with soluble his-tagged human LIGHT (Sino Biological Inc) at 2 μg/mL/tube, or with soluble biotinylated human TNFβ (Sino Biological Inc) at 0.2 μg/mL/tube in PBS/BSA/NaN₃ for 30 minutes at 4° C. After this (i.e., without washing), cells were subsequently incubated with 50 μL purified chimeric mouse/human anti-HVEM antibody at 20 μg/mL/tube or a human IgG4/κ (Sigma) negative isotype control at 20 μg/mL/tube for 30 minutes at 4° C. […] After extensive washing in PBS/BSA/NaN₃, cells were incubated with 1:200 diluted PE-conjugated streptavidin (detection CD160 and LIGHT; Jackson ImmunoResearch) for 30 minutes at 4° C. After extensive washing in PBS/BSA/NaN₃, cells were fixed in 4% formaldehyde in PBS/BSA/NaN₃ for 30 minutes at 4° C. Residual binding of ligands BTLA, CD160, LIGHT and TNFβ on membrane human HVEM was measured using a flow cytometer (model FACSCalibur; BD Biosciences).

[7] = biological target: T1, membrane-bound full-length human HVEM …; assay: FACS, Ab 10 µg/mL then biotinylated BTLA on HVEM-HEK293F
Description: (§2) Generation of human ‘full-length’ HVEM-transfected HEK293F cells (clone no. 128) is described in Example 1a. Binding of soluble human BTLA, of soluble human CD160, of soluble human LIGHT, and of soluble human TNFβ on surface human HVEM-transfected cells was analysed by FACS analysis. To this end, stable human full-length HVEM-transfected HEK293F cells were put at 10×10⁶ cells/mL in ice-chilled phosphate-buffered saline containing 0.1% BSA (Sigma)/0.05% NaN₃ (PBS/BSA/NaN₃) supplemented with 50 μg/mL human IgGs (blocking possible Fcγ receptors; Sigma) for 10 minutes at 4° C. Then, 10 μL/tube (i.e., 0.1×10⁶ cells) of these cells were incubated with or without 100 μL purified chimeric mouse/human anti-HVEM antibody at 10 μg/mL/tube or a human IgG4/κ (Sigma) negative isotype control at 10 μg/mL/tube for 30 minutes at 4° C. After this (i.e., without washing), cells were subsequently incubated with 1 μg/mL soluble biotinylated human BTLA (Sino Biological Inc), with 10 μg/mL soluble his-tagged human CD160 (Sino Biological Inc), with 1 μg/mL soluble his-tagged human LIGHT (Sino Biological Inc), or with 0.1 μg/mL soluble biotinylated human TNFβ (Sino Biological Inc) in PBS/BSA/NaN₃ for 30 minutes at 4° C. After extensive washing in PBS/BSA/NaN₃, cells were incubated with 1:200 diluted PE-conjugated streptavidin (detection BTLA and TNFβ; Jackson ImmunoResearch) or with biotinylated mouse anti-his antibody (detection CD160 and LIGHT; R&D Systems) at 10 μg/mL for 30 minutes at 4° C. After extensive washing in PBS/BSA/NaN₃, cells were incubated with 1:200 diluted PE-conjugated streptavidin (detection CD160 and LIGHT; Jackson ImmunoResearch) for 30 minutes at 4° C. After extensive washing in PBS/BSA/NaN₃, cells were fixed in 4% formaldehyde in PBS/BSA/NaN₃ for 30 minutes at 4° C. Binding of ligands BTLA, CD160, LIGHT and TNFβ on membrane human HVEM was measured using a flow cytometer (model FACSCalibur; BD Biosciences). For comparison, purified BTLA/HVEM blocking mouse anti-human HVEM antibody counterparts no. 36H12, 45H6, 48H6, 11H7, and 49G4 at 10 μg/mL/tube and a mouse IgG1 (BD Biosciences) negative isotype control at 10 μg/mL/tube were run in parallel.

[8] = biological target: T1, membrane-bound full-length human HVEM …; assay: FACS, Ab 10 µg/mL then biotinylated TNFβ on HVEM-HEK293F
Description: as §2

[9] = biological target: T1, membrane-bound full-length human HVEM …; assay: FACS, biotinylated BTLA-Fc pre-bound, then Ab 20 µg/mL
Description: as §1

| Molecule | signal to noise ratio [1] | signal to noise ratio [2] | EC80 of LIGHT-induced NFκB-RE-luc activation [3] [µg/mL] | EC50 [4] [µg/mL] | % displacement of pre-bound ligand [5] [%] | % displacement of pre-bound ligand [6] [%] | % blocking of ligand binding [7] [%] | % blocking of ligand binding [8] [%] | % displacement of pre-bound ligand [9] [%] |
| --- | --- | --- | --- | --- | --- | --- | --- | --- | --- |
| phycoerythrin (PE)-conjugated mouse anti-human HVEM antibody (clone eBioHVEM-122; eBioscience) | 1000 | < 5 | – | – | – | – | – | – | – |
| soluble his-tagged human LIGHT (R&D Systems) (ligand) | – | – | 0.3 | – | – | – | – | – | – |
| chimeric mouse/human IgG4/kappa anti-human HVEM antibody no. 45H6 (antibody, V domains shown, 24/25 within the entry; Stabilized human IgG4 (S239P) already in the entry; also called chimeric 45H6) VH: DVQLVESGGGLVQPGGSRKLSCAASGFTFSSFGMHWVRQAPEKGLEWVAYISSGNSNIYYVDTVKGRFTISRDNPKNTLFLQMTSLRSEDTAMYYCARKRAYGDYSGFSMDYWGQGTSVTVSS VL: DIVMTQSQKFMSTSVGDRVSVTCKASQNVDTNVAWYQQKPGQSPKALIYSASYRYSGVPDRFTGSGSGTDFTLTISNVQSEDLAEYFCQQYNKFPLTFGGGTKLEIKR | – | – | – | 0.306 | < 20 | > 90 | > 95 | > 94 | > 95 |
| chimeric mouse/human IgG4/kappa anti-human HVEM antibody no. 49G4 (antibody, V domains shown, 48/49 within the entry; Stabilized human IgG4 (S239P) already in the entry; also called chimeric 49G4) VH: EVQLQQSGAELVKPGASVKLSCRASGFNIKDTYMHWVKQRPEQGLEWIGRIDPARGNTKYDPKFQGKATITADTSSNTAYLQLSSLTSEDTAVYYCASAMDYWGQGTSVTVSS VL: DVLMTQTPLSLPVSLGDQASISCRSSQSIVHSNGNTYLEWFLQKPGQSPKLLIYKVSNRFSGVPDRFSGSGSGTDFTLKISRVEAEDLGVYYCFQGSHVPLTFGAGTKLELKR | – | – | – | 0.312 | < 20 | > 55 | > 95 | > 80 | > 95 |
| chimeric mouse/human IgG4/kappa anti-human HVEM antibody no. 36H12 (antibody, V domains shown, 16/17 within the entry; Stabilized human IgG4 (S239P) already in the entry; also called chimeric 36H12) VH: EVQLQQSGAGLVKPGASVKLSCTASGFNIKDTYMHWVRQRPEQGLEWIGRIDPATANTKYDPKFQGKATLTTDTSSNTAYLQLSSLTSEDTAVYYCVTYGYDVSWFAYWGLGALVTVSA VL: DVLMTQTPLSLPVSLGDQASISCRSSQSIVHSNGITYLEWYLQKPGQSPKLLIYKVSNRFSGVPDRFSGSGSGTDFTLKISRVEAEDLGVYYCFQGSHVPLTFGAGTKLELKR | – | – | – | 0.433 | < 20 | > 90 | > 95 | > 94 | > 95 |
